The values that follow come from patent US20250179205A1 (Hoffmann-La Roche, published 2025).

The target of experiment [1] is T1, human fibroblast activation protein (huFAP) (human, UniProt Q12884 1-760).
T1 construct: expressed on transfected NIH/3T3-huFAP clone 19 cells; also called human FAP
As to the kind of experiment: flow cytometry, NIH/3T3-huFAP clone 19 cells, PE anti-human Fc F(ab')2. The procedure:
(§1) NIH/3T3-huFAP clone 19 and NIH/3T3-mFAP clone 26 were generated by the transfection of the mouse embryonic fibroblast NIH/3T3 cell line (ATCC CRL-1658) with the expression vector pETR4921 to express under 1.5 μg/mL Puromycin selection huFAP or mFAP, respectively.
(§2) NIH/3T3-huFAP, NIH/3T3-mFAP or NIH/3T3-wt cells were cultured with 1× Dulbecco's Modified Eagle's Medium (DMEM) (Gibco, Cat. No. 42430-025) supplemented with 10% Fetal Bovine Serum (FBS) (life technologies, Cat. No. 16140, Lot No. 1797306A). For the NIH/3T3-huFAP and NIH/3T3-mFAP cells 1.5 μg/mL Puromycin (Gibco, Cat. No. A11138-03) was added to the medium for selection of FAP-expressing cells. NIH/3T3 cells were removed from the plate by using enzyme-free Cell Dissociation Buffer (Gibco, Cat. No. 13151014). 0.3×10⁵ NIH/3T3-huFAP clone 19, NIH/3T3-mFAP clone 26 or NIH/3T3-wt were added in 200 μl of 1×DMEM 10% FBS to each well of a round-bottom 96-well plate (Greiner Bio-One, CELLSTAR®, Cat. No. 650185). Plates were centrifuged 5 minutes at 1700 rpm and supernatants were flicked off. Cells were washed once with 200 μL of 4° C. cold FACS buffer (eBioscience, Cat. No. 00-4222-26). All samples were resuspended in 50 μL/well of 4° C. cold FACS buffer containing the bispecific antigen binding molecules (primary antibody) or isotype control antibody DP47 at the indicated range of concentrations (in duplicates) and incubated for 120 minutes at 4° C. Afterwards the cells were washed three times with 200 μL 4° C. cold FACS buffer. Cells were further stained with 25 μL/well of 4° C. cold secondary antibody solution (1:50 dilution of secondary antibody) containing R-Phycoerythrin (PE) conjugated AffiniPure F(ab′)₂ Fragment Goat Anti-Human IgG, Fcγ Fragment Specific (Jackson ImmunoResearch, Cat. No. 109-116-098) and incubated for 60 minutes at 4° C. in the dark. Cells were washed with 200 μl FACS buffer and resuspended in 85 μL/well FACS-buffer containing 0.2 μg/mL DAPI (Roche, Cat. No. 10236276001) and acquired the same day using 5-laser LSR-Fortessa (BD Bioscience with DIVA software). Data analysis was performed using the FlowJo version 10 software (FlowJo LLC).
(In general: A flow cytometer gives signals particle by particle.)

Experiment [2] concerns the target T2, mouse fibroblast activation protein (mFAP) (mouse, UniProt P97321 1-761).
T2 construct: expressed on transfected NIH/3T3-mFAP clone 26 cells; also called murine FAP; mouse FAP
As to the kind of experiment: flow cytometry on NIH/3T3-mFAP cells (3T3_mFAP), PE-labelled anti-human IgG Fcgamma F(ab')2 secondary, MFI baseline corrected. The procedure: as §1, §2

Experiment [3] concerns the target T1, human fibroblast activation protein …. Put plainly: flow cytometry on NIH/3T3-huFAP clone 19 cells, PE-labelled anti-human IgG Fcgamma F(ab')2 secondary, MFI baseline corrected. The method, then:
as §1
as §2, with “Data analysis was performed using the FlowJo version 10 software (FlowJo LLC).” left out

In experiment [4] the target is T3, His-tagged human dimeric FAP (recombinant FAP_ECD) (human, UniProt Q12884 27-760).
T3 construct: also called hu FAP ectodomain + poly-lys-tag + his6-tag
Put plainly: SPR (Biacore T200), His-tagged dimeric huFAP ECD captured by anti-His, antibody as analyte, 1:1 fit (avidity). The method, then:
The capacity of the bispecific constructs to bind human FAP was assessed by surface plasmon resonance (SPR). All SPR experiments were performed on a BIACORE® T200 (BIACORE®) at 25° C. with HBS-EP as running buffer (0.01 M HEPES pH 7.4, 0.15 M NaCl, 3 mM EDTA, 0.005% Surfactant P20, (BIACORE®).
His-tagged human dimeric FAP (recombinant FAP_ECD) was captured on a CM5 chip (GE Healthcare) immobilized with anti-His antibody (Qiagen Cat. No. 34660) by injection of 500 nM huFAP for 60 s at a flow rate of 10 uL/min, 10 nM murine FAP for 20 s at a flow rate of 20 uL/min and 10 nM cynoFAP for 20 s at a flow rate of 20 uL/min. Immobilization levels for the anti-His antibody of up to 18000 resonance units (RU) were used. Following the capture step, the bispecific antibodies as well as control molecules were immediately passed over the chip surface at a concentration ranging from 0.78-100 nM with a flow rate of […] for 280 s and a dissociation phase of 180 s. Bulk refractive index differences were corrected for by subtracting the response obtained in a reference flow cell, where no FAP was immobilized. Avidity was determined using the Langmuir 1:1 curve fitting. For bivalent binding the same 1:1 fitting was used leading to an apparent KD value.
Background: In SPR one partner is held on a chip, and binding of the other changes the refractive index at the surface.

T2 sequence (P97321 whole entry): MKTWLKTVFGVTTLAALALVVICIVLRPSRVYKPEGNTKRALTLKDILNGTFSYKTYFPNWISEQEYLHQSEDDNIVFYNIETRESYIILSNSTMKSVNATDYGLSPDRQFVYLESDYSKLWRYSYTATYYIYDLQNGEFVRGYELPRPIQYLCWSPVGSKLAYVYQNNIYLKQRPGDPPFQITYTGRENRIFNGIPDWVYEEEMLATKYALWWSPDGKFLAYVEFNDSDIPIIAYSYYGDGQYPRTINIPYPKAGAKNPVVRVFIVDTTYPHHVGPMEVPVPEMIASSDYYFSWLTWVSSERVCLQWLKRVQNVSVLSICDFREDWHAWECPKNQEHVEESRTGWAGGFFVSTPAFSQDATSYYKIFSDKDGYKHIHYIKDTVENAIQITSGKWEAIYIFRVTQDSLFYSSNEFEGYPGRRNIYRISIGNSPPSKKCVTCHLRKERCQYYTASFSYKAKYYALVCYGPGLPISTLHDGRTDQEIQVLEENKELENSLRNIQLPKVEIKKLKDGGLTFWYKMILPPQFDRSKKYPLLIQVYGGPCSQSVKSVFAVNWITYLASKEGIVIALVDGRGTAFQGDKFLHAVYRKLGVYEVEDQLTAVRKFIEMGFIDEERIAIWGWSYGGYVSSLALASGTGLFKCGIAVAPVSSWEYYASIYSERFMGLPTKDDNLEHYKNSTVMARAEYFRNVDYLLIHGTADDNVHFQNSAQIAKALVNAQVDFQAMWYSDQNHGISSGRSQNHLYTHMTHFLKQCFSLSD

B1: P1AD4455 CD40 × FAP (28H1) (4 + 2) (bispecific antibody, human IgG1, kappa, L234A L235A)
heavy: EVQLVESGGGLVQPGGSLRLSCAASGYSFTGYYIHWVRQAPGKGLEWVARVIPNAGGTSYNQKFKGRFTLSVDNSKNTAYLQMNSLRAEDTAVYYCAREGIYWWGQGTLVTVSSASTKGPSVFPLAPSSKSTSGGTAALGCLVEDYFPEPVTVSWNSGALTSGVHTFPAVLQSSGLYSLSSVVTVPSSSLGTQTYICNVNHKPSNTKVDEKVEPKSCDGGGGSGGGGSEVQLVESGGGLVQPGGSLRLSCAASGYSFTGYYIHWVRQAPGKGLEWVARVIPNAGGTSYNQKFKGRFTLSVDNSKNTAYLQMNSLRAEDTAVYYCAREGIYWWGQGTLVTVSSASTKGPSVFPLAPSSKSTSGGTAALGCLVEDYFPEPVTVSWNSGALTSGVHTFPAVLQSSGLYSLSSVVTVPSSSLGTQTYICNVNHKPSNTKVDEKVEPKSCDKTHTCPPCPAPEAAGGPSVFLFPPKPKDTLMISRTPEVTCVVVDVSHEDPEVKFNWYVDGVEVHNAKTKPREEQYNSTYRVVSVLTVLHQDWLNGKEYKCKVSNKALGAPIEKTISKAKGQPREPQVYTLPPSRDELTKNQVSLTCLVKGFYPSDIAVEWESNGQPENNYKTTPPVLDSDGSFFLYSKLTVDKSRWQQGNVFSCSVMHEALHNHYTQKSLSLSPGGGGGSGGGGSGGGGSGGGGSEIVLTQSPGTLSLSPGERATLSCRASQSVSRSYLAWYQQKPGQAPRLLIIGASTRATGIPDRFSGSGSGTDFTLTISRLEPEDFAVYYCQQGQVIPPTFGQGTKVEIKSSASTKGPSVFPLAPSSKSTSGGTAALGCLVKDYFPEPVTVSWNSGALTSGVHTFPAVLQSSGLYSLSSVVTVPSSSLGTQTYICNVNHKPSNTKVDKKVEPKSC
light 1: DIQMTQSPSSLSASVGDRVTITCRSSQSLVHSNGNTFLHWYQQKPGKAPKLLIYTVSNRFSGVPSRFSGSGSGTDFTLTISSLQPEDFATYFCSQTTHVPWTFGQGTKVEIKRTVAAPSVFIFPPSDRKLKSGTASVVCLLNNFYPREAKVQWKVDNALQSGNSQESVTEQDSKDSTYSLSSTLTLSKADYEKHKVYACEVTHQGLSSPVTKSFNRGEC
light 2: EVQLLESGGGLVQPGGSLRLSCAASGFTFSSHAMSWVRQAPGKGLEWVSAIWASGEQYYADSVKGRFTISRDNSKNTLYLQMNSLRAEDTAVYYCAKGWLGNFDYWGQGTLVTVSSASVAAPSVFIFPPSDEQLKSGTASVVCLLNNFYPREAKVQWKVDNALQSGNSQESVTEQDSKDSTYSLSSTLTLSKADYEKHKVYACEVTHQGLSSPVTKSFNRGEC
notes: tetravalent for CD40, bivalent for FAP; also called CD40 × FAP 4 + 2; huCD40-28H1
For B1, a half-maximal effect in experiment [1] (EC50) was put at 3.64 nM. The 50% effective concentration (EC50 (read off the curve)) in experiment [2] and in experiment [3] was around 4 nM throughout.

B2: P1AE0192 CD40 × FAP (28H1) (1 + 1) Crossmab (bispecific antibody, human IgG1, kappa, L234A L235A)
heavy 1: not shown
heavy 2: EVQLVESGGGLVQPGGSLRLSCAASGYSFTGYYIHWVRQAPGKGLEWVARVIPNAGGTSYNQKFKGRFTLSVDNSKNTAYLQMNSLRAEDTAVYYCAREGIYWWGQGTLVTVSSASTKGPSVFPLAPSSKSTSGGTAALGCLVEDYFPEPVTVSWNSGALTSGVHTFPAVLQSSGLYSLSSVVTVPSSSLGTQTYICNVNHKPSNTKVDEKVEPKSCDKTHTCPPCPAPEAAGGPSVFLFPPKPKDTLMISRTPEVTCVVVDVSHEDPEVKFNWYVDGVEVHNAKTKPREEQYNSTYRVVSVLTVLHQDWLNGKEYKCKVSNKALGAPIEKTISKAKGQPREPQVCTLPPSRDELTKNQVSLSCAVKGFYPSDIAVEWESNGQPENNYKTTPPVLDSDGSFFLVSKLTVDKSRWQQGNVFSCSVMHEALHNRFTQKSLSLSPGK
light 1: DIQMTQSPSSLSASVGDRVTITCRSSQSLVHSNGNTFLHWYQQKPGKAPKLLIYTVSNRFSGVPSRFSGSGSGTDFTLTISSLQPEDFATYFCSQTTHVPWTFGQGTKVEIKRTVAAPSVFIFPPSDRKLKSGTASVVCLLNNFYPREAKVQWKVDNALQSGNSQESVTEQDSKDSTYSLSSTLTLSKADYEKHKVYACEVTHQGLSSPVTKSFNRGEC
light 2: EVQLLESGGGLVQPGGSLRLSCAASGFTFSSHAMSWVRQAPGKGLEWVSAIWASGEQYYADSVKGRFTISRDNSKNTLYLQMNSLRAEDTAVYYCAKGWLGNFDYWGQGTLVTVSSASVAAPSVFIFPPSDEQLKSGTASVVCLLNNFYPREAKVQWKVDNALQSGNSQESVTEQDSKDSTYSLSSTLTLSKADYEKHKVYACEVTHQGLSSPVTKSFNRGEC
notes: monovalent for CD40 and for FAP; also called CD40 × FAP 1 + 1; 1+1 format
Turning to B2, in experiment [1], the EC50 (as a rule, the midpoint of the concentration-response curve) is 1.15 nM. Further, the EC50 (read off the curve) – broadly, the concentration needed to bring the measured effect to its halfway point – in experiment [2] was around 1 nM. Also, in experiment [4], the Kd is 2.2 nM; the koff – broadly, a measure of how fast the partners let go of each other – was 0.00145 s⁻¹; the kon (commonly the rate constant with which the complex forms) worked out at 663000 M⁻¹ s⁻¹.
